Source: patent publication US20260125454A1 (SHANGHAI JUNSHI BIOSCIENCES, published 2026)
Changes are numbered by the printed parent chain. Where two headings read alike, the source gives them in different places.

T1: Biotin-huCGRPaSA (human, not fully specified; biotin (position not given))
T1 construct: exact construct ('aSA') not explained; also called Biotin CGRPaSA; full-length (1-37) CGRP
T1 peptide: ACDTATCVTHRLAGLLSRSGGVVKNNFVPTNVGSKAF

B1: hu38 (antibody, V domains shown)
VH: QVQLVQSGAEVKKPGASVKVSCKASGYTFIDFNMHWVRQAPGQRLEWMGYIYPYNGDVVYNQNFTNRVTLTVDTSSSTAYMELSSLRSEDTAVYYCAREGLGGYWGQGTLVTVSS
VL: DIVLTQSPDSLAVSLGERATINCKASQNIDYGGYSYMNWYQQKPGQPPKVLIYSVFNLESGVPDRFSGSGSGTDFTLTISSLQAEDVAVYYCQQSNEAPYTFGQGTKLEIK
notes: 1F5 HC-1/3H10 LC2-1
B2: hu237 (antibody, V domains shown)
VH: QVQLVQSGAEVKKPGASVKVSCKASGYTFTGYTMNWVRQAPGQGLEWMGLINPYIGNTHYNQKFKDRVTFTVDRSSSTAYMELSRLRSDDTAVYYCARELDSGFDYWGQGTLVTVSS
VL: DVVMTQSPDSLAVSLGERATINCRSSQNIVHSNADTYLEWYQQKPGQPPKLLIYKVSNRFSGVPDRFSGSGSGTDFTLTISSLQAEDVAVYYCYQGSHVPWTFGQGTKLEIK
notes: 3C1 HC-4/3C1 LC-4
B3: C125 (antibody, V domains shown)
VH: EVQLQQSGPELVKPGASVKISCKASGYTFTDYNMHWVKQSHGKSLEWIGNIYPYNGGTVYNQKFNNKATLTVHTSSSTAYMDLRSLTSDDSAVYYCAREGLGGYWGQGTTLTVSS
VL: DVVLTQSPTSLAVSLGQRATISCQASQNIDGNTYMNWYQQKPGQPPKVLIYSIFNLESGIPARFSGSGSGTHFTLTIHPVEEEDAATYYCQQSNDYPYTFGGGTKLEIK
notes: 2B8-HC1 + 2B8-LC2; chimeric, human constant regions
B4: C258 (antibody, V domains shown)
VH: B3 VH with A24T, N50Y, Y52S, V59A, N65K, N66F, A68S, H73D, D82E, D89E
VL: DIVLTQSPASLAVSLGQRATISCKASQNIDFDGYAYMNWYQHKPGQPPRVLIYSVFNLESGIPARFSGSGSGTDFTLNIHPVEEEDAATYYCQQSHEVPYTFGGGTNLEIK
notes: 3E5-HC + 1F5-LC1; chimeric, human constant regions
B5: C276 (antibody, V domains shown)
VH: B3 VH with A24T, N50Y, Y52S, V59A, N65K, N66F, A68S, H73D, D82E, D89E
VL: DIVLTQSPDSLAVSLGQRATISCKASQNIDYGGYSYMNWYQQKPGQPPKVLIYSVFNLESGIPARFSGSGSGTDFTLTIHPVEEEDAATYYCQQSNEAPYTFGGGTKLEIR
notes: 3E5-HC + 3H10-LC2; chimeric, human constant regions
B6: C350 (antibody, V domains shown)
VH: B3 VH with K13Q, K43E, N50Y, G57H, N65R, L70M, H73D, T74S, D89E, R98K
VL: B4 VL
notes: 3H10-HC + 1F5-LC1; chimeric, human constant regions
B7: C263 (antibody, V domains shown)
VH: B3 VH with A24T, N50Y, Y52S, V59A, N65K, N66F, A68S, H73D, D82E, D89E
VL: B3 VL
notes: 3E5-HC + 2B8-LC2; chimeric, human constant regions
B8: C120 (antibody, V domains shown)
VH: B3 VH
VL: B4 VL
notes: 2B8-HC1 + 1F5-LC1; chimeric, human constant regions
B9: C138 (antibody, V domains shown)
VH: B3 VH
VL: B5 VL
notes: 2B8-HC1 + 3H10-LC2; chimeric, human constant regions
B10: C131 (antibody, V domains shown)
VH: B3 VH
VL: B4 VL with F31Y, A35T, M37L, H42Q, R49K, V55I, H96N, N107K
notes: 2B8-HC1 + 3E5-LC; chimeric, human constant regions
B11: C48 (antibody, V domains shown)
VH: EVQLQQSGPEVVKPGASVRISCQASGYTFTDYNMHWVKQSHGKSLEWIGYIFPYNGVAVYNRKFRSKATLIIDKSSTTAYMELRSLTSEDSAVYYCAREGLGGYWGQGTTLTVSS
VL: B4 VL with F31Y, M37L, H42Q, R49K, H96N, V98F, N107K, I110V
notes: 1B2-HC + 1A2-LC2; chimeric, human constant regions
B12: C97 (antibody, V domains shown)
VH: EVQLQQSGPELVKPGASVKISCKASGYTFTDYNMHWVKQSHGKSLEWIGYVYPYNGGSAYNQKFKSKATLTVDTSSSIAYMDLHSLTSEDSAVYYCAREGLGGYWGQGTTLAVSS
VL: B4 VL
notes: 2A2-HC + 1F5-LC1; chimeric, human constant regions
B13: C85 (antibody, V domains shown)
VH: EVQLQQSGPELVKPGASVKISCKTSGYTFIDFNMHWVKQSHGKSLEWIGYIYPYNGDVVYNQNFTNKATLTVDSSSSTAYMELRRVTSEDSAIYYCAREGLGGYWGQGTTLTVSS
VL: B4 VL with F31Y, A35T, M37L, H42Q, R49K, V55I, H96N, N107K
notes: 1F5-HC + 3E5-LC; chimeric, human constant regions
B14: C92 (antibody, V domains shown)
VH: B13 VH
VL: B5 VL
notes: 1F5-HC + 3H10-LC2; chimeric, human constant regions
B15: C69 (antibody, V domains shown)
VH: B11 VH
VL: B5 VL
notes: 1B2-HC + 3H10-LC2; chimeric, human constant regions
B16: C51 (antibody, V domains shown)
VH: B11 VH
VL: B4 VL
notes: 1B2-HC + 1F5-LC1; chimeric, human constant regions
B17: hu231 (antibody, human IgG4 S228P, kappa, V domains shown)
VH: QVQLVQSGSELKKPGASVKVSCKASGYTFTGYTMNWVRQAPGQGLEWMGLINPYIGNTHYNQKFKDRFVFSVDRSSSTAYLQISSLKAEDTAVYYCARELDSGFDYWGQGTLVTVSS
VL: DVVMTQTPLSLSVTPGQPASISCRSSQNIVHSNGDTYLEWYLQKPGQSPQLLIYKVSNRFSGVPDRFSGSGSGTDFTLKISRVEAEDVGVYYCYQGSHVPWTFGQGTKLEIKR

How the values were obtained:
[1] = molecular target: T1, Biotin-huCGRPaSA; test: ELISA, supernatant; relative to chimeric C245
Method in brief: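 Antibodies, including reference chimeric C245, titrated 2.5-fold from 1000 ng/mL and incubated 60 min at 37°C on wells coated with 1.0 μg/mL biotin-CGRPaSA and blocked with 2% BSA. Bound IgG detected with HRP anti-human Fc antibody and TMB, acid-stopped, absorbance 450/620 nm.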

[2] = molecular target: CGRP antigen; test: cell-based or functional assay
[3] = molecular target: T1, Biotin-huCGRPaSA; test: ELISA, purified antibody; relative to reference 47-RM-20190815
Procedure: Streptavidin was diluted to […] by using PBS (Hyclone) and added into a plate at 100 μL/well. The plate was incubated in a thermostat incubator at 37° C. for 90 min and then washed. 2% BSA was added to the plate at 200 μL/well, and the plate was incubated in the thermostat incubator at 37° C. for 90 min and washed. Biotin-huCGRPaSA was diluted to 2.0 μg/mL with 2% BSA and added into the plate at 100 μL/well, and the plate was incubated in the thermostat incubator at 37° C. for 60 min. The chimeric antibodies in Table 3 and reference antibody (47-RM-20190815) were diluted to 1000 ng/ml with a diluent (2% BSA) and serially 10-fold diluted to 1 ng/mL. All the chimeric antibody solutions and the reference antibody solution were added into plates at 100 μL/well, and the plates were incubated in a thermostat incubator at 37° C. for 60 min and washed. An HRP-conjugated mouse anti-human antibody IgG4 (manufacturer: Southern Biotech, Cat. No. 9200-05; Fc specificity) was diluted 5000-fold with 2% BSA and added into the plates at 100 μL/well, and the plates were incubated in the thermostat incubator at 37° C. for 60 min and washed. 0.1 mg/mL chromogenic reagent TMB was carefully added at 100 μL/well to avoid bubbles, and the system was incubated at 37° C. for 5 min away from light for chromogenic reaction. Finally, a 2 M hydrochloric acid solution was added at 100 μL/well to stop the reaction while avoiding bubbles, and the plates were read on a microplate reader within 10 min (the detection wavelength was 450 nm; the reference wavelength was 620 nm). EC₅₀ was fit by using a four-parameter logistic regression (4PL) model.

[4] = molecular target: CGRP antigen; test: cell-based or functional assay; remark: listed apart in the source
[5] = molecular target: T1, Biotin-huCGRPaSA; test: ELISA, transfection supernatant, biotin-CGRP on streptavidin
Procedure: Streptavidin was diluted to 0.5 μg/mL by using PBS (Hyclone) and added into a plate at 100 μL/well. The plate was incubated in a thermostat incubator at 37° C. for 90 min and then washed. 2% BSA was added to the plate at 200 μL/well, and the plate was incubated in the thermostat incubator at 37° C. for 90 min and washed. Biotin-huCGRPaSA was diluted to 2.0 μg/mL with 2% BSA and added into the plate at 100 μL/well, and the plate was incubated in the thermostat incubator at 37° C. for 60 min. The reference antibody (47-RM) was diluted to 2500 ng/ml with a diluent (2% BSA) and serially 4-fold diluted to 0.15 ng/mL, and the chimeric antibodies were diluted with a cell supernatant stock solution. All the chimeric antibody solutions and the reference antibody solution were added into plates at 80 μL/well, and the plates were incubated in a thermostat incubator at 37° C. for 60 min and washed. An HRP-conjugated mouse anti-human antibody IgG4 (manufacturer: Southern Biotech, Cat. No. 9200-05; Fc specificity) was diluted 5000-fold with 2% BSA and added into the plates at 100 μL/well, and the plates were incubated in the thermostat incubator at 37° C. for 60 min and washed. 0.1 mg/mL chromogenic reagent TMB was carefully added at 100 μL/well to avoid bubbles, and the system was incubated at 37° C. for 10 min away from light for chromogenic reaction. Finally, a 2 M hydrochloric acid solution was added at 100 μL/well to stop the reaction while avoiding bubbles, and the plates were read on a microplate reader within 10 min (the detection wavelength was 450 nm; the reference wavelength was 620 nm).

[6] = molecular target: CGRP antigen; test: cell-based or functional assay; remark: listed apart in the source

Binder	Relative activity (%) [3]	OD value [5]	other results
B1	–	–	Relative binding activity, % [1]: 139%; IC50 [2]: 0.0725 µg/mL; relative activity (%) vs Ref(TEVA) [2]: 50%
B2	–	–	Relative binding activity, % [1]: 65%; IC50 [2]: 0.129 µg/mL; relative activity (%) vs C245 [2]: 22%
B3	62.9%	3.08 OD	Relative binding activity (%) vs Ref(Teva) [4]: 76.4%
B4	99.8%	3.12 OD	Relative binding activity (%) vs Ref(Teva) [6]: 117%
B5	84.1%	3.01 OD	–
B6	108%	3 OD	–
B7	111%	3.02 OD	–
B8	30.6%	3.09 OD	Relative binding activity (%) vs Ref(Teva) [6]: 50.3%
B9	136%	3.06 OD	–
B10	116%	3.02 OD	–
B11	60.4%	3.12 OD	Relative binding activity (%) vs Ref(Teva) [4]: 93%
B12	41.9%	3.03 OD	Relative binding activity (%) vs Ref(Teva) [4]: 98.4%
B13	56.7%	3.11 OD	Relative binding activity (%) vs Ref(Teva) [6]: 111%
B14	68.5%	3.09 OD	Relative binding activity (%) vs Ref(Teva) [6]: 108%
B15	221%	3.07 OD	Relative binding activity (%) vs Ref(Teva) [4]: 42.2%
B16	56%	3.04 OD	–
B17	–	–	Relative binding activity, % [1]: 68%; IC50 [2]: 0.0284 µg/mL; relative activity (%) vs C245 [2]: 91%
